Results taken from US20200377579A1 (Biogen, published 2020).

Columns and labels:
[1] = target: T1, aggregated α-synuclein (human, UniProt P37840 1-140); test: in vitro binding, method not stated; estimated from binding constants
[2] = target: T1, aggregated α-synuclein; test: in vitro binding, method not stated; same EC50 in mass units

B1: BIIB054 (antibody, human IgG1, lambda, V domains shown)
VH: EVQLVESGGGLVEPGGSLRLSCAVSGFDFEKAWMSWVRQAPGQGLQWVARIKSTADGGTTSYAAPVEGRFIISRDDSRNMLYLQMNSLKTEDTAVYYCTSAHWGQGTLVTVSS
VL: SYELTQPPSVSVSPGQTARITCSGEALPMQFAHWYQQRPGKAPVIVVYKDSERPSGVPERFSGSSSGTTATLTITGVQAEDEADYYCQSPDSTNTYEVFGGGTKLTVLS
notes: Fully human IgG1/lambda monoclonal antibody; also called anti-α-synuclein antibody
B1 gave an EC50 [1] of about 0.25 nM and an EC50 [2] of about 0.0375 µg/mL.
